Assay results: US11938195B2, “Upconversion nanoparticle peptide conjugates” (BP InnoMed Limited, priority 2021, dated 2024)
Where no end group is shown, it is not given here. [ ]: non-standard residue; d: D form. Ahx = NCCCCCC(=O)O

Legend:
[1] = Peptide release from nanoprobes under various time intervals (UV-vis absorbance); format: physicochemical; conditions: 0.5 mg/mL
Source text: The stability and capability of cleavage of the pH linker were also studied. […] More importantly, TEM images of UCNP-P5 at different pH buffers were observed and investigated in FIG. 1, providing direct evidence on pH-responsive peptide release from UCNP.

p65 = assay: Western blot of p65 (NF-κB) in C666 cells; format: cell-based
Source text: NF-κB signaling pathway is critical for the survival of EBV-infected tumor cells. Here we investigated if our nanoprobes could affect this oncogenic pathway. EBV-positive LCL3 and C666 cells were used as models, EBV-negative HK1 cells were used as control and Western blot was used to analyze the protein expression of p65, a major transcription factor in the NF-κB family. […] GAPDH and Histone are regarded as internal standards in cytosolic and nuclear fractions, respectively. […] This is consistent with the cellular uptake results.
Western blotting: EBV-positive C666, LCL3 and EBV-negative HK1 cell pellets were treated with phosphatase and protease inhibitors at 0-4° C. for 30 min. The total protein concentrations were calculated by protein absorbance. The protein was resolved by sodium dodecyl sulfate-polyacrylamide gel electrophoresis (SDS-PAGE) and transferred to cellulose filter membranes. The membranes were blocked with 3% BSA in Tris-buffered saline in 0.1% Tween 20 (TBST) for 1 h with gentle shaking and subsequently incubated with primary antibodies (1:1000) in 3% BSA in TBST at 4° C. for overnight. After rinsing with TBST buffer three times, the blots were then incubated with corresponding secondary anti-rabbit antibody (1:6000) for 1 h. After that, the blots were rinsed again with 3% BSA in TBST for 1 h shaking at room temperature. Lastly, the density of bands was determined by image analysis system after washing with TBST buffer three times.

[2] = system: EBV- and LMP1-negative HK1 cells; assay: MTT cytotoxicity assay, HK1 cells; format: cell-based; set-up: unit not given here; conditions: 24 h incubation
EBV-positive C666 cells = assay: Two-photon confocal imaging, C666; format: cell-based; conditions: mainly from the nuclei, 24 h incubation
Description: After the study of cellular uptake, fluorescent confocal microscopy was used to study the sub-cellular localization with the same set of EBV-/LMP1-positive and -negative cell lines. All these cell lines were treated with as-prepared samples for different time intervals of 1 h, 3 h, 6 h, 12 h and 24 h. Fluorescence signals in the cells were imaged under 980 nm excitation.
The cells were then co-stained with 0.05 mM nuclear dye DRAQ5 for 0.5 h for confocal imaging with a Leica SP8 confocal microscope equipped with a coherent femtosecond laser (690-1050 nm), argon laser (432 nm, 457 nm and 488 nm), He—Ne laser (632 nm), UV lamp. A stage-top cell culture chamber was also used to maintain the atmospheric conditions of 2-7% CO2 and a temperature of 37° C.

HeLa derived xenograft = conditions: 12.5 mg/kg i.v.; 3-36 h after injection; 980 nm
Description: (§1) In vivo upconversion luminescence imaging was performed using UCNP-P5 under 980 nm excitation (laser power: 3 W). C666-tumor-bearing and HeLa-tumor-bearing nude mice were injected with UCNP-P5 through the tail vein.
(§2) In vivo upconversion luminescence imaging: C666 and HeLa cells (10^6 cells) were inoculated subcutaneously in BALB/c female nude mice (6 weeks). When the tumors reached 0.2-0.3 cm in diameter, the C666-tumor-bearing and HeLa-tumor-bearing mice were anesthetized and injected intravenously with UCNP-P5 (150 μl, 12.5 mg/kg per mouse). The in vivo upconversion luminescence images were recorded at different time points (3 h, 6 h, 12 h, 24 h, 36 h).

C666-tumor = conditions: 12.5 mg/kg i.v.; 3-36 h after injection; 980 nm
Description: as §1, §2

LMP1-positive LCL3 cells = assay: MTT cytotoxicity assay, LCL3 cells; format: cell-based; conditions: 24 h incubation
Description: The inhibitory effects of the novel nanoprobes on both EBV-infected cancer cells and non-EBV-infected cancer cells were investigated by MTT assays to test the cell viability. The cytotoxic assays were performed in EBV-positive C666 and NPC43 cells, LMP1-positive LCL3 and Raji cells, and the LMP1-positive and -negative HK1 cell pair. HK1, MRC-5 and HeLa cell lines are EBV-negative and they serve as negative controls. […] In addition, UCNP-P4, EBNA1-specific peptide coated UCNPs was included as control group, so the ability of inhibiting EBV-related cancer cells can be directly compared with UCNP-Pn [n=5, 6 and 7 (SEQ ID NO: 5, 6, 7)].
In vitro cytotoxic assays: The cytotoxicity of our nanoprobes was determined by MTT reduction assay. The cells (3×10^3 per well) were seeded onto 96-well plates and incubated overnight, followed by treatment with Pn [n=5, 6 and 7 (SEQ ID NO: 5, 6, 7)], UCNP, UCNP-Pn [n=5, 6 and 7 (SEQ ID NO: 5, 6, 7)] and UCNP-P4 individually at 37° C., 5% CO2 for 24 h in dark. The cell monolayers were rinsed with PBS and 50 μL of MTT, 3-(4,5-dimethylthiazol-2-yl)-2,5-diphenyltetrazolium bromide solution (0.5 mg mL^−1) was added per well and the cells were further incubated for 3 h at 37° C. […] The absorptions of the formazan crystal solutions at 540 nm and 690 nm were measured using a dual-wavelength Labsystem Multiskan microplate reader (Merck Eurolab).

[3] = biological target: EBNA1 (DNA-binding domain fragment of a.a.468-607) (Epstein-Barr virus, UniProt P03211); assay: EBNA1 dimerization/oligomerization inhibition assay; format: biochemical; conditions: 0.3 mg/mL nanoprobe, 90 mg EBNA1, DSS crosslinking, SDS gel
Description: EBNA1 dimerization/oligomerization inhibition assays were performed to reveal the ability of interrupting EBNA1 dimerization/oligomerization in the presence of the previous nanoprobe UCNP-P4 and the nanoplatforms in situ.
(conc.: 0.3 mg/mL) at 4° C. overnight. Then, 2 mM disuccinimidyl suberate (DSS) was added to allow the samples to undergo crosslinking reaction at room temperature for 30 min. The samples were run and separated on an SDS-denaturing gel and proteins were detected using Coomassie Blue staining. PBS buffer was used as control group.

EBV-negative MRC-5 cells = assay: MTT cytotoxicity assay, MRC-5 cells; format: cell-based, human; set-up: unit not given here; conditions: 24 h incubation

Sequence of EBNA1 (DNA-binding domain fragment of a.a.468-607) (P03211 468-607): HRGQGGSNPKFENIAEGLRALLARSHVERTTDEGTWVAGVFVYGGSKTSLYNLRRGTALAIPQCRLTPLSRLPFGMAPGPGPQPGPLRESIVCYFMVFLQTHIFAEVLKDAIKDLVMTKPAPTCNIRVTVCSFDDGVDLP

Substance: UCNP-P5: UCNP is NaGdF4:Yb^3+, Er^3+@NaGdF4 and plurality of polypeptides is Ahx-YFMVFGGRrRKGGFWLY (SEQ ID NO: 5), pH-sensitive imine linker ([Ahx]YFMVFGGR[dR]RKGGFWLY; also: conjugated to UCNP NaGdF4:Yb3+,Er3+@NaGdF4 via pH-sensitive imine linker)
- Peptide release rate ([1]; 1 h): 0%
- Peptide release rate ([1]; 3 h): 0%
- Peptide release rate ([1]; 6 h): 0.1%
- Peptide release rate ([1]; 12 h): 0.5%
- Peptide release rate ([1]; 24 h): 0.7%
- Peptide release rate ([1]; 3 day): 0.8%
- Peptide release rate ([1]; 5 day): 1.1%
- Peptide release rate ([1]; 7 day): 1.9%
- Decreased p65 expression, nuclear fraction (p65): 89%
- IC50 in HK1 [2]: 1027
- Responsive emission enhancement (lambda scan) (EBV-positive C666 cells): two-fold
- Upconversion luminescence signal from the tumor site (HeLa derived xenograft): only observed at 3 h after the injection
- Upconversion luminescence signal from the tumor site (C666-tumor): persisted even 24 h after the injection
- IC50 in LCL3 (LMP1-positive LCL3 cells): 19 mg/mL
- Inhibition of EBNA1 dimerization/oligomerization [3]: eradicate all 90 mg EBNA1 dimers and oligomers
- IC50 in MRC-5 (EBV-negative MRC-5 cells): 1280
